{"source": "paper PMC3409205", "about": "“Crystal Structure of TNF-α-Inducing Protein from Helicobacter Pylori in Active Form Reveals the Intrinsic Molecular Flexibility for Unique DNA-Binding” (PLoS ONE, 2012)", "key": {"[1]": {"target": "the molecule itself", "experiment": "SEC; analytical gel filtration, Superdex 75 10/300 GL, no reducing agent, pH 4.0 and pH 7.0, dimeric protein concentration 2 mg/ml (also 0.05 and 0.25 mg/ml, Fig. S1)"}, "TipαN25 (wild type) [2]": {"target": "T1, TipαN25 (wild type) (Helicobacter pylori 26695, UniProt O25318 25-192)", "experiment": "ITC; pH 5.0; n about 1; ITC: 50 mM citric acid/Na citrate pH 5.0, 150 mM NaCl, 25 °C; SPR: 50 mM Hepes pH 7.0, 150 mM NaCl, 0.005% Tween20, 25 °C", "conditions": "protein: recombinant; tags: C-terminal LE-6xHis; chain copies: 2"}, "TipαN25 R77A": {"target": "TipαN25 R77A (Helicobacter pylori 26695, UniProt O25318 25-192, R77A)", "experiment": "ITC; pH 5.0; n=0.477; ITC: 50 mM citric acid/Na citrate pH 5.0, 150 mM NaCl, 25 °C; SPR: 50 mM Hepes pH 7.0, 150 mM NaCl, 0.005% Tween20, 25 °C", "conditions": "protein: recombinant; tags: C-terminal LE-6xHis; chain copies: 2; called ssDNA by authors; self-complementary repeat"}, "TipαN25 (wild type) [3]": {"target": "T1, TipαN25 (wild type)", "experiment": "ITC; pH 5.0; n=0.925 dimer per DNA; ITC: 50 mM citric acid/Na citrate pH 5.0, 150 mM NaCl, 25 °C; SPR: 50 mM Hepes pH 7.0, 150 mM NaCl, 0.005% Tween20, 25 °C", "conditions": "protein: recombinant; tags: C-terminal LE-6xHis; chain copies: 2; called ssDNA by authors; self-complementary repeat"}, "TipαN25 K65A/K66A": {"target": "TipαN25 K65A/K66A (Helicobacter pylori 26695, UniProt O25318 25-192, K65A;K66A)", "experiment": "ITC; pH 5.0; n=0.921; ITC: 50 mM citric acid/Na citrate pH 5.0, 150 mM NaCl, 25 °C; SPR: 50 mM Hepes pH 7.0, 150 mM NaCl, 0.005% Tween20, 25 °C", "conditions": "protein: recombinant; tags: C-terminal LE-6xHis; chain copies: 2; called ssDNA by authors; self-complementary repeat"}, "TipαN25 R77A/R81A": {"target": "TipαN25 R77A/R81A (Helicobacter pylori 26695, UniProt O25318 25-192, R77A;R81A)", "experiment": "ITC; pH 5.0; n=0.491; ITC: 50 mM citric acid/Na citrate pH 5.0, 150 mM NaCl, 25 °C; SPR: 50 mM Hepes pH 7.0, 150 mM NaCl, 0.005% Tween20, 25 °C", "conditions": "protein: recombinant; tags: C-terminal LE-6xHis; chain copies: 2; called ssDNA by authors; self-complementary repeat"}, "TipαN25 H60A [4]": {"target": "T2, TipαN25 H60A (Helicobacter pylori 26695, UniProt O25318 25-192, H60A)", "experiment": "ITC; pH 5.0; n=0.5; ITC: 50 mM citric acid/Na citrate pH 5.0, 150 mM NaCl, 25 °C; SPR: 50 mM Hepes pH 7.0, 150 mM NaCl, 0.005% Tween20, 25 °C", "conditions": "protein: recombinant; tags: C-terminal LE-6xHis; chain copies: 2; called ssDNA by authors; self-complementary repeat"}, "TipαN25 K104A": {"target": "TipαN25 K104A (Helicobacter pylori 26695, UniProt O25318 25-192, K104A)", "experiment": "ITC; pH 5.0; n=0.87; ITC: 50 mM citric acid/Na citrate pH 5.0, 150 mM NaCl, 25 °C; SPR: 50 mM Hepes pH 7.0, 150 mM NaCl, 0.005% Tween20, 25 °C", "conditions": "protein: recombinant; tags: C-terminal LE-6xHis; chain copies: 2; called ssDNA by authors; self-complementary repeat"}, "TipαN25 H60A [5]": {"target": "T2, TipαN25 H60A", "experiment": "SPR; pH 7.0; ka 2.9 M-1 s-1, kd 1.75E-04 s-1; ITC: 50 mM citric acid/Na citrate pH 5.0, 150 mM NaCl, 25 °C; SPR: 50 mM Hepes pH 7.0, 150 mM NaCl, 0.005% Tween20, 25 °C", "conditions": "protein: recombinant; tags: C-terminal LE-6xHis; chain copies: 2; label: 5' biotin; called ssDNA by authors; self-complementary repeat"}, "TipαN25 (wild type) [6]": {"target": "T1, TipαN25 (wild type)", "experiment": "ITC; pH 5.0; n=1.47; ITC: 50 mM citric acid/Na citrate pH 5.0, 150 mM NaCl, 25 °C; SPR: 50 mM Hepes pH 7.0, 150 mM NaCl, 0.005% Tween20, 25 °C", "conditions": "protein: recombinant; tags: C-terminal LE-6xHis; chain copies: 2; called ssDNA by authors; self-complementary repeat"}, "TipαN25 (wild type) [7]": {"target": "T1, TipαN25 (wild type)", "experiment": "ITC; pH 5.0; n=1.17; ITC: 50 mM citric acid/Na citrate pH 5.0, 150 mM NaCl, 25 °C; SPR: 50 mM Hepes pH 7.0, 150 mM NaCl, 0.005% Tween20, 25 °C", "conditions": "protein: recombinant; tags: C-terminal LE-6xHis; chain copies: 2; called ssDNA by authors; self-complementary repeat"}}}
{"binder": "TipαN^25 (N-terminal-truncated TNF-α-inducing protein Tipα starting from residue Cys25) (domain or fragment, Tipα (TNF-α-inducing protein), Helicobacter pylori strain 26695, gene 0596, 192 amino acids; residues 25-192 (Δ1–24), amplified from genomic DNA into pET22b(+); The entry is the single chain (protomer); A SeMet form (E. coli B834) was used only for phasing; also called Tipα (Δ1–24); native TipαN^25; source: E. coli BL21 (DE3), purified (Ni-NTA, Hitrap SP cation exchange, Superdex 75)) CTCPNTSQRNSFLQDVPYWMLQNRSEYITQGVDSSHIVDGKKTEEIEKIATKRATIRVAQNIVHKLKEAYLSKTNRIKQKITNEMFIQMTQPIYDSLMNVDRLGIYINPNNEEVFALVRARGFDKDALSEGLHKMSLDNQAVSILVAKVEEIFKDSVNYGDVKVPIAM", "values": [{"measurement": "stoichiometry N", "setting": "[1]", "value": 2}]}
{"binder": "20 bp dsDNA (dsDNA) DNA 1: GCCTTGCCGCCGCCCTTGCC DNA 2: GGCAAGGGCGGCGGCAAGGC", "values": [{"measurement": "Ka", "setting": "TipαN25 (wild type) [2]", "value": "1.02e+06", "unit": "M⁻¹"}]}
{"binder": "GCGCGCGCGCGCGCGCGCGC (ssDNA)", "note": "[(dGdC)10, 20 nt]", "values": [{"measurement": "Ka", "setting": "TipαN25 R77A", "value": 479000, "unit": "M⁻¹"}, {"measurement": "Ka", "setting": "TipαN25 (wild type) [3]", "value": "1.04e+06", "unit": "M⁻¹"}, {"measurement": "Ka", "setting": "TipαN25 K65A/K66A", "value": 261000, "unit": "M⁻¹"}, {"measurement": "Ka", "setting": "TipαN25 R77A/R81A", "value": 140000, "unit": "M⁻¹"}, {"measurement": "Ka", "setting": "TipαN25 H60A [4]", "value": 28200, "unit": "M⁻¹"}, {"measurement": "Ka", "setting": "TipαN25 K104A", "value": 631000, "unit": "M⁻¹"}]}
{"binder": "GCGCGCGCGCGCGCGCGCGC (ssDNA)", "note": "[5'-biotin (dGdC)10, 20 nt]", "values": [{"measurement": "Kd", "setting": "TipαN25 H60A [5]", "value": 60.3, "unit": "µM"}]}
{"binder": "(dGdC)30, 60 nt (ssDNA) DNA: GCGCGCGCGCGCGCGCGCGCGCGCGCGCGCGCGCGCGCGCGCGCGCGCGCGCGCGCGCGC", "values": [{"measurement": "Ka", "setting": "TipαN25 (wild type) [6]", "value": "1.03e+06", "unit": "M⁻¹"}]}
{"binder": "GCGCGCGCGCGCGCGCGCGCGCGCGCGCGCGCGCGCGCGC (ssDNA)", "note": "[(dGdC)20, 40 nt]", "values": [{"measurement": "Ka", "setting": "TipαN25 (wild type) [7]", "value": 937000, "unit": "M⁻¹"}]}
